Patent publication US12397052B2, “Microcapsule-based vaccine” (INSTITUTE OF PROCESS ENGINEERING, CHINESE ACADEMY OF …, priority 2018, dated 2025)

Experiments:
[1] = tested on: OVA+ cells; assay: Antigen utilization in thigh muscle by flow cytometry (OVA+ cells); type: in vivo, C57BL/6 mice; settings: 5th day
Method: Five days later, the mice were killed, and their muscle tissues containing the microspheres were taken out, cut into small pieces with scissors, ground into a suspension, resuspended in PBS at 4° C., and centrifuged to remove the supernatant. To the centrifugal residue, was added 1 mL of a solution of an enzyme mixture (made by dissolving collagenase D and 100 U/mL recombinant DNase I in RPMI 1640 medium) at a concentration of 1 mg/mL. The mixture was incubated at 37° C. for 30 min, washed with PBS, and subjected to filtration with a 20 μm cell sieve to get rid of impurities, giving a single-cell suspension. […] The BD LSRFortessa flow cytometer was used to detect OVA^+ cells, CD 11c^+OVA^+ cells, and F4/80^+OVA^+ cells, and the data was analyzed using the Flowjo software.
In the embedding group, as a result of the excellent antigen-retention capability and antigen-release capability, the number of OVA^+ cells increased by about 50 times, the endocytosis of OVA increased by 4 times or more, and the utilization of the antigen increased by 200 times or more. […] The utilization of the antigen was calculated by normalizing the number of OVA^+ cells multiplied by the fluorescence intensity using the utilization of the antigen of the simple antigen group.

[2] = tested on: E.G7 tumor cells; assay: E.G7 lymphoma solid tumor model
Method: To construct E.G7 tumor-bearing mice models, 1×10^6 E.G7 tumor cells (purchased from ATCC) were injected into 6-8 weeks old female C57BL/6 mice (purchased from Beijing Weitonglihua Experimental Animal Co., Ltd.) on the armpit, and the tumor-bearing mice were randomly divided into groups each consisting of 6 mice. The mice were vaccinated when the tumor grew to a volume of 50-60 mm^3 on the 4th day. […] The volume of the tumor was calculated by this formula: V=1/2×L×W^2 (where L is the length of the tumor, and W is the width of the tumor).

Molecule | fluorescence intensity of intracellular OVA [1] | number of OVA+ cells [1] | 25-day survival rate (SR) ([2]; mouse, in vivo) [%] | tumor growth (E.G7) ([2]; vaccinated on 4th day)
simple antigen group: preparation of a simple fluorescent antigen (OVA labeled with dye Cy5), no carrier (protein, UniProt P01012 2-386, looked up, Cy5 dye label, preparation of a simple fluorescent antigen (OVA labeled with dye Cy5), no carrier) Ovalbumin: GSIGAASMEFCFDVFKELKVHHANENIFYCPIAIMSALAMVYLGAKDSTRTQINKVVRFDKLPGFGDSIEAQCGTSVNVHSSLRDILNQITKPNDVYSFSLASRLYAEERYPILPEYLQCVKELYRGGLEPINFQTAADQARELINSWVESQTNGIIRNVLQPSSVDSQTAMVLVNAIVFKGLWEKAFKDEDTQAMPFRVTEQESKPVQMMYQIGLFRVASMASEKMKILELPFASGTMSMLVLLPDEVSGLEQLESIINFEKLTEWTSSNVMEERKIKVYLPRMKMEEKYNLTSVLMAMGITDVFSSSANLSGISSAESLKISQAVHAAHAEINEAGREVVGSAEAGVDAASVSEEFRADHPFLFCIKHIATNAVLFFGRCVSP | very weak | small |  | 
OVA: free OVA antigen (Sigma), low-dose several times or high-dose (60 μg) a single time (protein, UniProt P01012 2-386, looked up) Ovalbumin: GSIGAASMEFCFDVFKELKVHHANENIFYCPIAIMSALAMVYLGAKDSTRTQINKVVRFDKLPGFGDSIEAQCGTSVNVHSSLRDILNQITKPNDVYSFSLASRLYAEERYPILPEYLQCVKELYRGGLEPINFQTAADQARELINSWVESQTNGIIRNVLQPSSVDSQTAMVLVNAIVFKGLWEKAFKDEDTQAMPFRVTEQESKPVQMMYQIGLFRVASMASEKMKILELPFASGTMSMLVLLPDEVSGLEQLESIINFEKLTEWTSSNVMEERKIKVYLPRMKMEEKYNLTSVLMAMGITDVFSSSANLSGISSAESLKISQAVHAAHAEINEAGREVVGSAEAGVDAASVSEEFRADHPFLFCIKHIATNAVLFFGRCVSP |  |  | 17 | not inhibited
